{"source": "patent US20090186043A1", "about": "(BEN GURION UNIVERSITY OF THE NEGEV RESEARCH AND DEVELOPMENT …, published 2009)", "binders": {"B1": {"name": "Flamingo Cadherin receptor derived synthetic peptide (FCRP), 15 amino acids (peptide)", "peptide": "H-ADSDSDSDLSLEEER-OH", "notes": "Derived from human Flamingo homolog 1 (Q9NYQ7); also called FC peptide; FC derived synthetic peptide"}}, "biological_target": "T1, Recombinant Fructose Bisphosphate Aldolase (rFBA), FBA-HAT fusion protein, 33.5 kDa (Streptococcus pneumoniae TIGR4, UniProt P0A4S1 1-293)", "T1 construct": "Expressed in E. coli BL21(DE3)pLysS and purified on Ni-NTA in 8 M urea; also called rFBA-HAT fusion protein; recombinant FBA; not shown: HAT (histidine) tag from the pHAT expression vector", "T1 sequence (looked up)": "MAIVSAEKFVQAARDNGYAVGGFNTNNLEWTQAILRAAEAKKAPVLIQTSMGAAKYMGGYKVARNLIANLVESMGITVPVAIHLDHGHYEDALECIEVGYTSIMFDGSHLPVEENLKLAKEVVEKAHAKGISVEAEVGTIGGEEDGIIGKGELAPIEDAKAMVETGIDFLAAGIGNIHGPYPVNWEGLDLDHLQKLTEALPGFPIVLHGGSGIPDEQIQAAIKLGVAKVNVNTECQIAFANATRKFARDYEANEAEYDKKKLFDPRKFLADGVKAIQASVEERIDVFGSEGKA", "assay": "Western blot like overlay: rFBA on nitrocellulose probed with FCRP, rabbit anti-FCRP-KLH serum and anti-rabbit IgG"}
{"binder": "B1", "values": [{"measurement": "binding result", "value": "binds"}]}
